The text below walks through data of patent CN115043938A (DUAN LIANGWEI; JIANG ZHIHUA; WANG HUI, dated 2022).

The target in one assay is SARS-CoV-2野生型 S蛋白 (假病毒) (SARS-CoV-2 野生型, UniProt P0DTC2 14-1273). Briefly: cell-based or functional assay.
Assay [1] has as its target 新型冠状病毒野生型RBD蛋白 (RBD-WT, cat#Z03479, Gensript) (SARS-CoV-2 野生型, UniProt P0DTC2 319-541). Briefly: BIAcore SPR, RBD immobilised on CM5 chip, antibody as analyte, 25℃, 1:1 model. For orientation: Surface plasmon resonance follows binding to a sensor surface in real time, without labels.

Broadly, the Kd is the concentration at which binding is half-saturated. High values mean weaker binding, low ones tighter binding.

B1: 抗体Amb1 (antibody, V domains shown)
VH: EVQLLESGTEVKKPGSSVKVSCKASGGTFSSYAISWVRQAPGQGLEWMGGIIPILGIANYAQKFQGRVTITADKSTSTAYMELSSLRSEDTAVYYCARERGYSGYGAAYYFDYWGQGTLVTVSS
VL: QSVLTQAPSVSGAPGQSVTISCTGSSSNIGAGYDVHWYQQLPGTAPKLLIYGNNNRPSGVPDRFSGSKSGTSASLAITGLQAEDEADYYCQSYDSSLSKGVFGGGTKLTVL
On to B1, for which, in the assay with SARS-CoV-2野生型 S蛋白 (假病毒), the “假病毒中和 IC50” value was determined as 0.13 µg/mL. Moreover, the Kd in assay [1] stood at 151 nM.

B2: 抗体Amb2 (antibody, V domains shown)
VH: EVQLLESGPGLVKPSETLSLTCTVSGGSISNSSYYWGWIRQPPGKGLEWIGSIYYSGSTYYNPSLKSRVTISVDTSKNQFSLKLSSVTAADTGVYYCASWLYGDPISFDYWGQGTLVTVSS
VL: not shown
Turning to B2, the “假病毒中和 IC50” value with SARS-CoV-2野生型 S蛋白 (假病毒) was found to be 0.064 µg/mL. In assay [1], binding was put at a Kd of 164 nM.
